Reference: patent US8163697B2, “Selective R-cadherin antagonists and methods” (The Scripps Research Institute, priority 2003, dated 2012)
Where a SMILES comes first, the peptide text is derived from it. Bridges are numbered along the chain shown (N, C = ends). Where no end group is shown, it is not given here.

Assays:
N-cadherin = target: T1, N-cadherin (Mus musculus, UniProt P15116); assay: Aggregation assay, N-cadherin transfected L-cells; format: cell-based; details: N-cadherin expressing L-cells; for IC50: 2 hours incubation, 5 mM CaCl2, read-out: IC50, inhibition of N-cadherin mediated aggregation
T1 construct: expressed in transfected cells
T1 sequence (P15116 160-906): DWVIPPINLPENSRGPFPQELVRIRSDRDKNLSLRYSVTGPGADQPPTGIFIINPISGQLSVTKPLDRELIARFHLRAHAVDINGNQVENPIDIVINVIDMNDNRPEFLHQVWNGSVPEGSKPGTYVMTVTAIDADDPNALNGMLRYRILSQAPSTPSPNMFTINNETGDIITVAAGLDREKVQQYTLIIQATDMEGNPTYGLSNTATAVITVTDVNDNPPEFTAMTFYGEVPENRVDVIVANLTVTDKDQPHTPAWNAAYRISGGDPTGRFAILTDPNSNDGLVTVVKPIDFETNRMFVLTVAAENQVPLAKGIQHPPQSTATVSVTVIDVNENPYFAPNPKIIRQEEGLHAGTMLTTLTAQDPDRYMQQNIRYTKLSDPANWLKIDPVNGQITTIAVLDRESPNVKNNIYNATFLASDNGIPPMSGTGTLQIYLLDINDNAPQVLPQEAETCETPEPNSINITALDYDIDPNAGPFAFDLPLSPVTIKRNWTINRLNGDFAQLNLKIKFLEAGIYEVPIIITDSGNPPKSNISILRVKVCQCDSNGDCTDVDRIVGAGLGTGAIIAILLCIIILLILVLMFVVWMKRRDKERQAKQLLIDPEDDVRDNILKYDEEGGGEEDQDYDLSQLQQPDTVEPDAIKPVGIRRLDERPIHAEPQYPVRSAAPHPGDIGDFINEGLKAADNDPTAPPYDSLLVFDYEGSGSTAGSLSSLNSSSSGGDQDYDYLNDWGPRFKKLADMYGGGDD
Source text: (§1) Mouse R-cadherin and N-cadherin plasmids were generous gifts from Dr. Masatoshi Takeichi (Kyoto University, Japan). The plasmids were sub-cloned into pDsRed2 N1 vectors (Clontech) to encode for fusion proteins with Red Fluorescent Protein (RFP) attached to the C-terminal end of the cadherin molecules. L-cells (mouse fibroblast L929 cells, ATCC #CRL-2148) were stably transfected with either R or N-cadherin pDsRed2 N1 using the Calcium Phosphate Transfection System (Life Technologies) according to the manufacturer's protocol. After screening by growth in media supplemented with Geneticin (700 μg/mL G418 Geneticin, Gibco BRL), positive clones were selected. Cells were examined for expression of RFP, and were tested for cadherin expression by immunoblotting and immunofluorescence staining. FIG. 6 illustrates the aggregation of L-cells expressing R and N-cadherins.
(§2) L-Cells were grown to near confluency followed by trypsinization with 0.01% trypsin+5 mM CaCl2 and no EDTA (TC) or 0.01% trypsin with 0.1 mM EDTA and no calcium (TE). The cells were collected and washed, followed by resuspension in Hanks buffer solution (HBSS)+1% BSA with (TC) or without (TE) 5 mM CaCl2. Cells were incubated at 37° C. in 0.5 mL solution at 2×10^5 cells per well of a 24 well plate with rocking at about 60-70 rpm with varying peptide concentrations. All assays were performed in triplicate. The extent of cellular aggregation was represented by the ratio of the total particle number after 2 hours of incubation (N2hr) to the initial particle number (N0). Particles were counted on a hemocytometer using the sum of 8 separate 20 μL counts/well, before (N0) and after (Nt) incubation. The results are illustrated in FIG. 8.
Mouse fibroblast cells (lineage L929), commonly referred to as L-cells, were chosen because they are known to contain no endogenous cadherin expression. R-cadherin stable transfectants were created and used to test the effects of the designed peptides on R-cadherin mediated aggregation. N-cadherin stable transfectants were also created and used to evaluate the peptides for cadherin selectivity, based on their effects on N-cadherin mediated aggregation. Immunoblot analysis detected high levels of R-cadherin and no N-cadherin expression in R-cadherin clone 8 (R-cad8), while high levels of N-cadherin expression and no R-cadherin expression was found in N-cadherin clone 3 (N-cad3), as shown in FIG. 7. Immunofluorescence confirmed the expression of the appropriate cadherin in these chosen clones. When tested in the aggregation assay, the morphology of the transfected cell lines was altered as a result of cadherin transfection. […]

R-cadherin = target: T2, R-cadherin (Mus musculus, UniProt P39038); assay: Aggregation assay, R-cadherin transfected L-cells; format: cell-based; details: R-cadherin expressing L-cells
T2 construct: expressed in transfected cells
T2 sequence (P39038 167-913): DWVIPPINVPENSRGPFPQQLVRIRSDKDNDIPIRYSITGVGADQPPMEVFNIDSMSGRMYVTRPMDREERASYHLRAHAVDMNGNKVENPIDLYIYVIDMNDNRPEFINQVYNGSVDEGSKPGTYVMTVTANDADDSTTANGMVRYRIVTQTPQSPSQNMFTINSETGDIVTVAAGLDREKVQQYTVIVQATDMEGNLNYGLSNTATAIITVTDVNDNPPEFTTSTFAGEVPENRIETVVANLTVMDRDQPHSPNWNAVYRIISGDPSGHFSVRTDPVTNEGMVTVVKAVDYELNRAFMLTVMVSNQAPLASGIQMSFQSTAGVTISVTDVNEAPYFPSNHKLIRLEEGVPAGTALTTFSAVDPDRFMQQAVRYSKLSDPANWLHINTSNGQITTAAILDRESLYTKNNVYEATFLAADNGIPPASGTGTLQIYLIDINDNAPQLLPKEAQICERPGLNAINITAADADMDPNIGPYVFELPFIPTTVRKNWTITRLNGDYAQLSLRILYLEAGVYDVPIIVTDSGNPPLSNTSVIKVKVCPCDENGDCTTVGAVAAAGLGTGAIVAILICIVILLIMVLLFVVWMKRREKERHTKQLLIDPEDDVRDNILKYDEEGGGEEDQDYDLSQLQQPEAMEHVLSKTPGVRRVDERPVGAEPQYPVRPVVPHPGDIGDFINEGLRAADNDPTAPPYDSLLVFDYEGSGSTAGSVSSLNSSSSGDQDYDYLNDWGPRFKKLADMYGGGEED
Source text: as §1
as §2, with “The results are illustrated in FIG. 8.” left out
Mouse fibroblast cells (lineage L929), commonly referred to as L-cells, were chosen because they are known to contain no endogenous cadherin expression. […] Immunoblot analysis detected high levels of R-cadherin and no N-cadherin expression in R-cadherin clone 8 (R-cad8), while high levels of N-cadherin expression and no R-cadherin expression was found in N-cadherin clone 3 (N-cad3), as shown in FIG. 7. […]

Compound	effect on N-cadherin mediated aggregation (N-cadherin)	effect on R-cadherin mediated aggregation (R-cadherin)	IC50 (N-cadherin)	IC50 (R-cadherin; 2 hours incubation, 5 mM CaCl2, read-out: IC50, inhibition of R-cadherin mediated aggregation)
cyclic CSDIC (disulfide 1-5; also: peptides said to be amide-blocked at N-terminus and acetylated at C-terminus (as worded)) [cyclic SDI, control cyclic peptide CSDIC]	little effect	little effect		
CC(=O)N[C@H]1CSSC[C@@H](C(N)=O)NC(=O)[C@H](C(C)C)NC(=O)[C@H](C)NC(=O)[C@H](Cc2c[nH]cn2)NC1=O [cyclic HAV, CHAVC]			150 to 200 µM	150 to 200 µM
cyclic CRADC (disulfide 1-5; also: peptides said to be amide-blocked at N-terminus and acetylated at C-terminus (as worded)) [cyclic RAD, control cyclic peptide CRADC]	little effect	little effect		
CC[C@H](C)[C@@H]1NC(=O)[C@@H](NC(C)=O)CSSC[C@@H](C(N)=O)NC(=O)[C@@H]2CCCN2C(=O)[C@H](CC(N)=O)NC1=O [cyclic INP, cyclic CINPC] (Ac-CINPC-NH2; disulfide 1-5)			< 300 µM	
